Measured values from publication PMC8440430 (Current biology : CB, 2021).

Legend:
[1] = target: MAD2 WT (recombinant, TEV-cleaved) (human, UniProt Q13257 1-205); test: SEC
[2] = target: FLAG-RIT1 protein (full-length recombinant RIT1) (human, UniProt Q92963 1-219); test: pull-down
His6-MAD2 = His6-MAD2 (human, UniProt Q13257 1-205); test: pull-down
His6-RIT1 = His6-RIT1 (human, UniProt Q92963 1-219); test: pull-down
Chain of His6-RIT1 (Q92963 whole entry): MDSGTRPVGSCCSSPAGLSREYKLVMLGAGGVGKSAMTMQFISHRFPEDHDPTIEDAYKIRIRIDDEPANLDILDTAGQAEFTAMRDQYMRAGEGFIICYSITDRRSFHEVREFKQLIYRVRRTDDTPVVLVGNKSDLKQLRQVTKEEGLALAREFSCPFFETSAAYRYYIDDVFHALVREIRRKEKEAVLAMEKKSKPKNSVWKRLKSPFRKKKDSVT

Chain of FLAG-RIT1 protein (full-length recombinant RIT1) (Q92963 whole entry): as above

Q: Does SVWKRLKSPFRKKKD (peptide, UniProt Q92963 202-216, looked up) [RIT1 (202-216) peptide] bind [1]?
A: Result: binds

B1: GST-MAD2 Loop-less (LL) (natural protein, human)
chain: MALQLSREQGITLRGSAEIVAEFFSFGINSILYQRGIYPSETFTRVQKYGLTLLVTTDLELIKYLNNVVEQLKDWLYKCSVQKLVVVISNIESGEVLERWQFDIECDKGSGEKSQKAIQDEIRSVIRQITATVTFLPLLEVSCSFDLLIYTDKDLVVPEKWEESGPQFITNSEEVRLRSFTTTIHKVNSMVAYKIPVND
Q: Does B1 bind [2]?
A: Result: binds

Q: Does EHQKAWALNLNGFDVEEAKILRLSGKPQ (domain or fragment, UniProt Q12834 111-138, looked up) [GST-CDC20 111-138] bind (His6-MAD2)?
A: Result: binds

B2: GST-RGL3 RBD (604-703) (domain or fragment, UniProt Q3MIN7 604-703, looked up)
chain: IPLPAQQSSEARVIRVSIDNDHGNLYRSILLTSQDKAPSVVRRALQKHNVPQPWACDYQLFQVLPGDRVLLIPDNANVFYAMSPVAPRDFMLRRKEGTRN
Q: Does B2 bind (His6-RIT1)?
A: Result: binds
